Measurements: PMC5526462 (Biochemistry, 2017)
Where two headings read alike, the source gives them in different places.

B2: Methylobacterium extorquens PqqD (MePqqD), truncation of the natural MePqqCD fusion (domain or fragment)
chain: MEPTAFSGSDVPRLPRGVRLRFDEVRNKHVLLAPERTFDLDDNAVAVLKLVDGRNTVSQIAQILGQTYDADPAIIEADILPMLAGLAQKRVLER

How the values were obtained:
[1] = target: PqqE (Methylorubrum extorquens) (UniProt B7KXC6); conditions: cited from earlier work
[2] = target: PqqD (Methylorubrum extorquens) (UniProt Q49148); conditions: cited from earlier work
[3] = target: PqqE (Methylorubrum extorquens) (UniProt B7KXC6); conditions: cited from earlier work; remark: listed apart in the source
[4] = target: B2; assay: NMR titration
[5] = target: T1, Methylobacterium extorquens PqqE (His6-MePqqE) (Methylobacterium extorquens, UniProt P71517 1-384); assay: NMR titration
T1 sequence (looked up): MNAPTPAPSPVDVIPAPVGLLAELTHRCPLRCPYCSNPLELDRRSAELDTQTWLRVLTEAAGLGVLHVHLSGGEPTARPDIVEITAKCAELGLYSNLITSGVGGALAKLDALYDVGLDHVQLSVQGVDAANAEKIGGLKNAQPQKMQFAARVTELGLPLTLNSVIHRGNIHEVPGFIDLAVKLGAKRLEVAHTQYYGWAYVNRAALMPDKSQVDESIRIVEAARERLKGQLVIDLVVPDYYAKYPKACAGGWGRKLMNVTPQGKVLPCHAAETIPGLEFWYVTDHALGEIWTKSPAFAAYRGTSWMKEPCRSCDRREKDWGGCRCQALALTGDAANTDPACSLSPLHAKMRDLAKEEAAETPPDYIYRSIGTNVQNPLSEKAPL

Sequence of PqqD (Methylorubrum extorquens) (Q49148 whole entry): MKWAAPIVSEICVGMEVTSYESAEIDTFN

PqqD-PqqA complex (from UniProt Q49148)
Kd [1]: 5 µM

PqqA (from UniProt Q49148)
Kd [2]: 0.2 µM

PqqD (from UniProt Q49148)
Kd [3]: 12 µM

KWAAPIVSEISVGMEVTSYESAEIDTFN [MePqqA precursor peptide (without the N-terminal methionine, cysteine 11 changed to serine)]
binding result [4]: binds

B1: MePqqD + MePqqA binary complex (complex, Methylobacterium extorquens)
chain: MEPTAFSGSDVPRLPRGVRLRFDEVRNKHVLLAPERTFDLDDNAVAVLKLVDGRNTVSQIAQILGQTYDADPAIIEADILPMLAGLAQKRVLER
peptide: KWAAPIVSEISVGMEVTSYESAEIDTFN
binding result [5]: binds

B2
binding result [5]: binds
